These results are taken from patent US12202907B2, “Nucleic acids encoding and methods of producing proteins comprising antibody chains” (Innate Pharma, priority 2018, dated 2025).

“Also recorded” adds a separate entry of the source.

One data set concerns the target T1, cell-membrane bound CD39 (Homo sapiens, UniProt P49961).
T1 sequence (P49961 1-510): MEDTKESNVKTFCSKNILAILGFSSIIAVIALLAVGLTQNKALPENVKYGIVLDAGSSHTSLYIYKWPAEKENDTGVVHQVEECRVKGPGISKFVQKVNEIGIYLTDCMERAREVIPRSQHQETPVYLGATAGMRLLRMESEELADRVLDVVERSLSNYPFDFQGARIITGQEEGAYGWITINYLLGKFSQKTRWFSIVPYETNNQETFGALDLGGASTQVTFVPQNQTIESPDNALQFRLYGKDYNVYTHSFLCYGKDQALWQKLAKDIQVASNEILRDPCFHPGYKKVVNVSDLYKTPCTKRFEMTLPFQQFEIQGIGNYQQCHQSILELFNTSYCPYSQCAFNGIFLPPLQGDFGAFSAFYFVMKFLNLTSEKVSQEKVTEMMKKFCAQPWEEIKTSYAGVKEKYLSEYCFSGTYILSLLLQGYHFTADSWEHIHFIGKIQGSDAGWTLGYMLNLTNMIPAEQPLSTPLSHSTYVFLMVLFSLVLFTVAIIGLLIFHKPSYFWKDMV
The data set can be described thus: Inhibition of the enzymatic activity of cellular CD39 (cells not specified). Format: cell-based. On the procedure: (§1) The inhibition of the CD39 enzymatic activity in CD39-expressing cells by antibodies was evaluated using Cell Titer GIo™ (Promega, reference G7571) that allows assessment of ATP hydrolysis through use of a reagent that generates a luminescent signal proportional to the amount of ATP present. The assay was thus designed to permit assessment of the inhibition of ATP hydrolyzed by CD39 in the cell culture supernatant. Briefly, 5×10^4 Ramos human lymphoma cells, 5×10^3 human CD39−, cynomolgus CD39—and mouse CD39− expressing CHO cells, were incubated 1 hour at 37° C. with anti-CD39 antibodies from 30 μg/ml to 5×10^−4 μg/ml. Cells were then incubated with 20 μM ATP for 1 additional hour at 37° C. Plates were centrifuged for 2 min at 400 g and 50 μl cell supernatant are transferred in a luminescence microplate (white wells). 50 μl CellTiter-Glo™ Reagent (CTG) was added to the supernatant and emitted light was quantified after a 5 min incubation in the dark using a Enspire™ luminometer. Anti-CD39 antibody efficacy was determined by comparing emitted light in presence of antibody with ATP alone (maximal light emission) and ATP together with cells (minimal light emission).

The test system of a further data set is CD4 or CD8 T cells. Nature of the data set: T cell proliferation assay in the presence of added ATP. Format: cell-based, human. As to conditions: for increase in potency of anti-CD73 antibodies: CD4 T cell proliferation. Here is the method:
Peripheral blood from healthy donors was obtained from EFS, and mononuclear cells were isolated on a Ficoll™ gradient. Lymphocytes were further enriched on a 52% Percoll™ gradient by collection of the cell pellets and stained with a Cell Trace dye (Thermofisher) following the TDS provided by the manufacturer. […] to 1×10^5 of stained cells were distributed in 96 round-bottom plates, incubated for 1 hour at 37° C. with anti-huCD73 antibodies (antibody 6E1 described in WO2016/131950) and/or anti-huCD39 Abs (I-394 described herein) and activated for 3 to 5 days by addition of anti-CD3/anti-CD28-coated beads (bead:cell=1:4; Life Technologies). Inhibition of T cell proliferation was achieved by addition of ATP (200 μM). T cell proliferation and ability of Abs to block immune suppressive effect of AMP were assessed by flow cytometry by quantifying the dye dilution in the proliferating T cell subset.
Percentage of proliferating T cells vs. anti-CD73 Ab concentration is plotted in graphs using GraphPad Prism™ software.

The target of data set [1] is T2, human CD39 expressing CHO cells (CHO-huCD39) (Homo sapiens, UniProt P49961).
T2 construct: expressed in transfected cells; host or cells: CHO
T2 sequence (P49961 1-510): T1 sequence (P49961 1-510)
The data set can be described thus: Inhibition of the enzymatic activity of cellular CD39 in CHO-huCD39. The format is cell-based. As to conditions: qualitative. Here is the method: as §1

Data set [2] addresses T3, soluble recombinant human CD39 protein (Homo sapiens, UniProt P49961).
T3 construct: made in house; host or cells: CHO cells
T3 sequence (P49961 with tags, fused parts or gaps): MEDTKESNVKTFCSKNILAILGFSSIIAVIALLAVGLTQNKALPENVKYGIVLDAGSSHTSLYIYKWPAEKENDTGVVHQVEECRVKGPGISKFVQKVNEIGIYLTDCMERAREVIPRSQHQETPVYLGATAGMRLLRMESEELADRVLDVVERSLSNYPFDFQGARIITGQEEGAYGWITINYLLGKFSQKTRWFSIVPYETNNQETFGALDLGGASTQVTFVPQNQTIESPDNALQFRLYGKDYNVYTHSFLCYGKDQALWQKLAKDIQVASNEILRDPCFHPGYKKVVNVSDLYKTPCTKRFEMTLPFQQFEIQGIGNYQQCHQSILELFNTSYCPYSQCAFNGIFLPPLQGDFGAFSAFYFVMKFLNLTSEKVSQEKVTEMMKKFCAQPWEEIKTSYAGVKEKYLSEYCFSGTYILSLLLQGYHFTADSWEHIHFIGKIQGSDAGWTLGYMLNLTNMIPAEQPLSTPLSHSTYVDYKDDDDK
Nature of the data set: Inhibition of the enzymatic activity of soluble CD39 (Cell Titer Glo, cell-free). The format is biochemical. Here is the method:
The inhibition by antibodies of the enzymatic activity of soluble CD39 protein produced was evaluated using Cell Titer GIo™ (Promega, reference G7571) that allows assessment of ATP hydrolysis through use of a reagent that generates a luminescent signal proportional to the amount of ATP present. In this way, inhibition of the soluble-CD39-meidated ATP hydrolysis can be assessed. Briefly, dose ranges of anti-CD39 antibodies from 100 μg/ml to […] were incubated with 400 ng/ml of soluble recombinant human CD39 protein having the amino acid sequence described in the Methods section (SEQ ID NO: 44), for 1 h at 37° C. 20 μM ATP was added to the plates for 30 additional minutes at 37° C. before addition of CTG (Cell Titer Glo) reagent. Emitted light was quantified using an Enspire™ luminometer after a short incubation period of 5 min in the dark. Anti-CD39 antibody efficacy was determined by comparing emitted light in presence of antibody with ATP alone (maximal light emission) and ATP together with soluble CD39 protein (minimal light emission).
A general note: In ATP-based viability assays light output follows the ATP content of the culture.

As for “I-394: anti-CD39 antibody, VH SEQ ID NO: 6, VL SEQ ID NO: 7, human IgG1 Fc with L234A/L235E/G237A/A330S/P331S”, in the data set with cell-membrane bound CD39 (FIG. 2A), the “potency and maximal inhibition of cellular CD39 compared to BY40” value is “greater potency and maximal inhibition of cellular CD39 compared to BY40”. Moreover, the “inhibition of cell-membrane bound (cellular) CD39 ATPase activity” value in the data set with cell-membrane bound CD39 (qualitative) was “inhibit cell-membrane bound CD39”. Also, the “potentiation of anti-CD73 antibodies in restoring CD4 or CD8 T cell proliferation” value in the data set on CD4 or CD8 T cells (ATP 200 μM, combination with anti-CD73 antibody 6E1) is reported as “strongly potentiation the effect of anti-CD73 antibodies in restoring CD4 or CD8 T cell proliferation”. For the same substance, the “increase in potency of anti-CD73 antibodies” value was “approximately 1 log” in the data set on CD4 or CD8 T cells (anti-CD39 at 0.01 μg/ml) and “approximately 4 log” in the data set with CD4 or CD8 T cells (anti-CD39 at 0.1 μg/ml). The “enhancement of CD4 or CD8 T cell proliferation, alone without anti-CD73” value in the data set on CD4 or CD8 T cells (concentrations of 0.1 μg/ml and 1 μg/ml, ATP 200 μM) is on record as “remarkable enhancement of CD4 or CD8 T cell proliferation”. In addition, the “blocking CD39 enzymatic activity in CHO-huCD39” value in data set [1] is “blocks CD39 enzymatic activity”. Further, the “inhibition maximum, soluble CD39” value in data set [2] worked out at 74.9%. Also, the “potency ranking for inhibition of soluble CD39” value in data set [2] (FIG. 2B, comparison of BY40, I-394, I-395, I-396) is given as “greatest potency”. The “inhibition of the enzymatic (ATPase) activity of soluble CD39 protein” value in data set [2] (qualitative) is “strong inhibition of the enzymatic activity of soluble CD39; also recorded: inhibits the enzymatic activity of soluble CD39 protein”.
